# Results reported in the DeepSol protein solubility set.
# Assay: soluble on expression in E. coli; label from the status in PepcDB or PDB records
row,Sequence,soluble on expression in E. coli
1,MGSDKIHHHHHHMLKEFKEQRLKEIQELRSMGIEPYPYKFEKELTAREIREKYDYLQAGEVLESEKLSFAGRVMSIRHHGKTAFFHMKDDTGRIQAYIKADSVGKEKMDLFKRHVKIGDFVGVRGFPFKSKTGELTIYVQEYTLLSKALRPLPEKWHGIKDKEIIYRQRYLELIVNDEAIERFKKRFKAVRVIREFLNSRGFIEVETPILHYVTGGAEARPFVTHLNVFDIDMYLRIAPELYLKRLIVGGFEKIYEIGKNFRNEGISYKHSPEFTSIEIYQAYADYNDMMDLTEELIVEVVKRTCGTLKISYQGKEIDFTPPWKRVRMRDFLKEKLGVDILEDPDEVLLKKLEEHGVELEIKNRAHLIDKLRDLVEEELVNPTFIIDHPVVISPLAKRHREDPRLTERFELIIFGREIANAFSELNDPVDQYQRFLEQAKMREEGDEEAHMMDLDFVRALEYGMPPTGGLGIGLDRLFMFITDSPTIRDVIPFPIVKPKKFEEEEAEFEGGFEE,not soluble
2,MFRRKLTALDYHNPAGFNCKDETEFRNFIVWLEDQKIRHYKIEDRGNLRNIHSSDWPKFFEKYLRDVNCPFKIQDRQEAIDWLLGLAVRLEYGDNAEKYKDLVPDNSKTADNATKNAEPLINLDVNNPDFKAGVMALANLLQIQRHDDYLVMLKAIRILVQERLTQDAVAKANQTKEGLPVALDKHILGFDTGDAVLNEAAQILRLLHIEELRELQTKINEAIVAVQAIIADPKTDHRLGKVGRLEHHHHHH,soluble
3,MKILITGGAGFIGSAVVRHIIKNTQDTVVNIDKLTYAGNLESLSDISESNRYNFEHADICDSAEITRIFEQYQPDAVMHLAAESHVDRSITGPAAFIETNIVGTYALLEVARKYWSALGEDKKNNFRFHHISTDEVYGDLPHPDEVENSVTLPLFTETTAYAPSSPYSASKASSDHLVRAWRRTYGLPTIVTNCSNNYGPYHFPEKLIPLVILNALEGKPLPIYGKGDQIRDWLYVEDHARALHMVVTEGKAGETYNIGGHNEKKNLDVVFTICDLLDEIVPKATSYREQITYVADRPGHDRRYAIDAGKISRELGWKPLETFESGIRKTVEWYLANTQWVNNVKSGAYQSWIEQNYEGRQ,soluble
4,MKGFQFKVIQEKLQGRQFINSDKIKPDHPQTIIKKTLLKEYQSKNFSCQEERDLFLEFTEKIVQNFHNINFNYLLKKFCKLPENYQSLKSQVKQIVQSENKANQQSCENLFNSLYDTEISYKQITNFLRQIIQNCVPNQLLGKKNFKVFLEKLYEFVQMKRFENQKVLDYICFMDVFDVEWFVDLKNQKFTQKRKYISDKRKILGDLIVFIINKIVIPVLRYNFYITEKHKEGSQIFYYRKPIWKLVSKLTIVKLEEENLEKVEEKL,soluble
5,MGSDKIHHHHHHMESQNVSFRVAREDLVTAVAWVARNLPTKPTQPVLRAMLITADDEGLELAGYDYDVSTRVRLSAEVSQPGRIAVAGKLLSEITGSLPNKPVDFRIDGSKAFVTCGSSRFELPLIPLDDYPMLPKLPAGTGSINAKLFTEAVSQVASAAGKDDSLPMLTGVSMEIVGNQINLAATDRFRLALRTFEWEANDPELNVKLLIPARTLLDNARSLDSGLNDSIDIAVGTGDQVGREGLFGVHTDNRETTTRLLDADFPNIAPLLPKEHTAIASVEIAPLVDAIRRVSLVAERNAQIVLHFSEGQVILTAGATEAGHAEETLPCAFTGKELTIAFNPGYLKDGLSVVPTSRAVFGFTEPSRPAIMIPEPEEMPSANENGIFQTPDTYFTYLLMPVRLPG,not soluble
6,MMQMPKIGIIGGSGVYGVFEPKEVVKVHTPYGRPSAPIEIGEIEGVEVAFIPRHGKYHEFPPHQVPYRANIWALHELGVERVIAINAVGSLKEEYKPGDIVIIDQFIDFTKKREYTFYNGPKVAHVSMADPFCPELRKIFIETAKELNLPVHERGTYVCIEGPRFSTRAESRMFRQFADVIGMTLVPEVNLARELGMCYVNISTVTDYDVWAEKPVDAQEVLRVMKENEEKVQKLLKRAIPKIPEERKCGCADVLKTMFV,soluble
7,MTLKLIGAGFGRTGTWSTFAALNRLGLPCYHMQEVIMNKANKGHLDFWRKVANSPPGSQHDWNRVFANYTATVDNPGCCVWKELLAAYPDAKVLLTLHPRGAEAWYESTIDTIYFTENVWQFKILEWLTPFGWKFGDMSRKLIWGRTLDGVMNDRAKAVARYNTYVEQVKAAVPPHKLLVYKVTEGWAPLCDFLGLEHHHHHH,soluble
8,MKITLIIPTYNAGSIWPNVLDAIKQQTIYPDKLIVIDSGSKDETVLLASDLKNISIFNIDSKDFNHGGTRNLAVTKTLDADVIIFLTQDAILADSDAIKNLVYYFSDPLIAAVCGRQLPHKDANPLAVHARNFNYSSKSIVKSKADIEKFGIKTVFMSNSFAAYRRSVFEELSGFPEHTILAEDMFMAAKMIQAGYKVAYCAEAVVRHSHNYTPREEFQRYFDTGVFHACSPWIQRDLGGAGGEGFRFVKSEIQFLLKNAPFWIPRALLTTFAKFLGYKLGKHWQSLPLSTCRYFSMYKSYWNNIQYSSSKEIKLEHHHHHH,not soluble
9,MNEADMLFSVTVPGSTANLGPGFDSVGMALSRYLKLTVFESDKWSFEAETETVAGIPAGTDNLIYQVAKRTADLYGKEMPPVHVKVWSDIPLARGLGSSAAAIVAAIELADELCGLKLSEADKLHLASLEEGHPDNAGASLVGGLVIGLHEDDETQMIRVPNADIDVVVVIPFYEVLTRDARDVLPKEFPYADAVKASAVSNILIAAIMSKDWPLVGKIMKKDMFHQPYRAMLVPELSKVEHVAEMKGAYGTALSGAGPTILVMTEKGKGEELKEQLALHFPHCEVDALTVPKEGSIIERNPLYQVKSV,not soluble
10,SLTLPQTERQYLSGHGCDDMVEWDFFCTDGRNSGKWTKIGVPSCWELQGFGTYQYGITFYGKAFPEGIADEKGMYKYEFEVPEKFRGQQVNLVFEASMTDTEVKVNGRKVGSKHQGAFYRFSYNVTDFLKYGKKNLLEVTVSKESENASVNLAERRADYWNFGGIFRPVFLEVKPAINLRHIAIDAQMDGSFRANCYTNLSNDGMSIRAQILDNKGKKLTETTVPVKAGGDWTSLQLKVSDPALWTAETPNLYKAQFSLLDKDGKVLHNETETFGFRTIEVRESDGLYVNGVRIMVRGVNRHSFRPESGRTLSKAKNIEDVLLMKDMNMNSVRLSHYPADPEFLEACDSLGLYVMDELGGWHGKYDTPTGVRLIKGMIERDVNHPSIIWWSNGNEKGWNTELDGEFHKYDPQKRPVIHPQGNFSGFETMHYRSYGESQNYMRLPEIFMPTEFLHGLYDGGHGAGLYDYWEMMRKHPRCIGGFLWVLADEGVKRVDMDGFIDNQGNFGADGIVGPHHEKEGSFYTIKQLWSPVQIMNTSVDKQFDGKFSVENRYDYLNLNTCRFLWKQVKFPTATDASNTTAQVLKQGEVQGSDVAAHSAGVLDIKTTILPDADALFLTAIDRYGHELWRWTFPVNKLNQANEVLSPLSNEG,soluble
11,MNYIESLISSVDSQIDTLNKAMIEVQSTIDLLSNGDLASSPEKLISIGSGLFAKGNITIDEDLIVPIGSGIYVAETKERSVERLKKNLEDIKASIQKLLDQRKTLVDQYNTVYATEATRNVK,not soluble
12,MAHHHHHHMDYEEPGQATRELTTFVQGLLQNMQTRFQEMSDTIITRIDEMGTRIDDLEKNIAELMQQAGPDEEAAQTASAPKDKKKSKGK,soluble
13,MYKEDTIAAISTPHGAGGVGIIRISGDKAFEIAERIFRGKKDFKLIRSHTINYGKIVNPENGAVLDEVLLSKMEKPKTFTREDVVEINCHGGMVVLKNILELCIKEGARLAEPGEFTKRAFLNGRIDLSQAEAVIDLINSKTNESSKAAISQLEGKLSRKIKDARSKLIELLAHIEVTVDYPEHDIEEITGNMVYEEIGKIKEKLCDIVKSFERGRIIREGIDAVIIGKPNVGKSSLLNELSGKSKAIVTDIPGTTRDIIEEYININGIPLRIIDTAGIRETEDVVEKIGVEKTHRAIDEADLVIMMIDAKRGMDEDDNRILTMLGDKKLIILINKIDLVDEKQINEIESLLKGRKCIRTSVKEGTGISELENAITELFVQGEVSVNEEILLTNIRHKNLIDMAISSIEKAMESIDGSMPLDLVSIDITDAADYLGQITGESVSEDVMHEIFSKFCLGK,not soluble
14,AATITTSGTVLPTVTVAGHRAAIDEAPPLYKGGQVGSGARMGVLGNTAVMDTPFSVTSYSAQVIENNQARSVADIAAMDPSVRMSSARSNINEDLTMRGFSVSSADFALNGLFGLTPYWRAPLESIERVEVIKGPSAALFGMAPGSSVGGVVNLVPKRAGDTP,not soluble
15,MGSDKIHHHHHHMLEATYHSLEDLAEAIGVALSAPITIEDRNHRLLAYSTHTADTDPARIATIIGRRVPESVIDQLWKDEVIQNLAAQDEPLIISARTGVGLNDRVAIAIKQDTEILGYIWSIARSTPFSETELSDFKKGALLAQRQLLAIDMQKKRQEEKTEQFFFELLHEDMPESEILKTFSKLHVAPPGISRLMVIRFSEAITPRLADRLRYLLTIQQTVRPLLYAYDETDFILWISTNDQDAHHERLQFDAFIQSFRQMLAERFNYTNFISASSEVFTGVQSIPERYEETGIVLRLKDAFPFELSTVTRYERLGLFQLLPIFSERLRRRTVRLEEIERLRSYDEKHAASLCETLEWFLHYDGNVKQVASHLHVHPNTILYRMRRIEEEAGIRMESLPERALLYLYLKADRYPL,not soluble
16,MGSDKIHHHHHHMDKIRVIELGSNISAPLVGTILADLGAEVIKVEPPPYGDDRRRVKPEINGISVYFASTNRGKKSVVINLKSDEGYEIFQRLVKTADVIVTNYRPSALKRLKVDYESVKRINPKIIYCSITGFGNLTEEADRPAYDPIILALSGLMDMTGEENPVKFATSISDITTGLLATVMILWALNKGGPTFIDVPMIYTQFYLTLEDAYMYLNTGKVPKRMGSAHRYLVPYQAFKVVDGYIYVAVFNDEQYLKLCKALNREDLCKFDTLQKRVENRDYLIKELGKIFEKNTRDYWVDLLSKADVPVAPVLSLEQAFKKYGNRLVYEIEGVKYIDFPINITSNKSKAPRLGENTKEVLLELGYSEGEINRLAEKGIIMLI,not soluble
17,MGSDKIHHHHHHMNLKLDHIIHYLHQLESFKFPGEILELQNGGRHHHLGTFNQIAPIKNSYIELLDVENESKLSNIAKTEEGRVSFATKIVQDHFKQGFKGICFRTKDINQVKSTLENRGVDVIGPIDMERENKKGHQIRWRLLYIANPDYTVKPPFFIEWDNNKKQNLSQIHNFNLSSFKIKEVIITSTQRETTVSLWKEWYNLKIVNETATSTDLKLETDEVIYKIEDGKDSGFHTLIMTDINATAPYSIFIRGAKYRFEPPN,not soluble
18,MKIIDFRLRPPAMGFLNARIYTRPDIRNRFTRQLGFEPAPSAEEKSLELMFEEMAAAGIEQGVCVGRNSSVLGSVSNADVAAVAKAYPDKFHPVGSIEAATRKEAMAQMQEILDLGIRIVNLEPGVWATPMHVDDRRLYPLYAFCEDNGIPVIMMTGGNAGPDITYTNPEHIDRVLGDFPDLTVVSSHGNWPWVQEIIHVAFRRPNLYLSPDMYLYNLPGHADFIQAANSFLADRMLFGTAYPMCPLKEYTEWFLTLPIKPDAMEKILHGNAERLLAQAGRLEHHHHHH,not soluble
19,MGHHHHHHSHMLDDQEAKREAETFKEQGNAYYAKKDYNEAYNYYTKAIDMCPKNASYYGNRAATLMMLGRFREALGDAQQSVRLDDSFVRGHLREGKCHLSLGNAMAACRSFQRALELDHKNAQAQQEFKNANAVMEYEKIAETDFEKRDFRKV,not soluble
20,PDYIYAKDTAGRFLIANEVTVADNGLESLRDLVGKTDFDLHPHEFAQAVADTERRVLETGEPIFGIEERAIVTKDRDRWLMTSKVPLRSKSGRIIGIVGISRD,not soluble
